In paper PMC10786891, “Massively parallel profiling of RNA-targeting CRISPR-Cas13d”:
Positions count from the first letter of the chain named. Names may count otherwise.

T1: EsCas13d, nuclease-dead (Eubacterium siraeum, UniProt B0MS50, R295A;H300A;R849A;H854A)
T1 sequence: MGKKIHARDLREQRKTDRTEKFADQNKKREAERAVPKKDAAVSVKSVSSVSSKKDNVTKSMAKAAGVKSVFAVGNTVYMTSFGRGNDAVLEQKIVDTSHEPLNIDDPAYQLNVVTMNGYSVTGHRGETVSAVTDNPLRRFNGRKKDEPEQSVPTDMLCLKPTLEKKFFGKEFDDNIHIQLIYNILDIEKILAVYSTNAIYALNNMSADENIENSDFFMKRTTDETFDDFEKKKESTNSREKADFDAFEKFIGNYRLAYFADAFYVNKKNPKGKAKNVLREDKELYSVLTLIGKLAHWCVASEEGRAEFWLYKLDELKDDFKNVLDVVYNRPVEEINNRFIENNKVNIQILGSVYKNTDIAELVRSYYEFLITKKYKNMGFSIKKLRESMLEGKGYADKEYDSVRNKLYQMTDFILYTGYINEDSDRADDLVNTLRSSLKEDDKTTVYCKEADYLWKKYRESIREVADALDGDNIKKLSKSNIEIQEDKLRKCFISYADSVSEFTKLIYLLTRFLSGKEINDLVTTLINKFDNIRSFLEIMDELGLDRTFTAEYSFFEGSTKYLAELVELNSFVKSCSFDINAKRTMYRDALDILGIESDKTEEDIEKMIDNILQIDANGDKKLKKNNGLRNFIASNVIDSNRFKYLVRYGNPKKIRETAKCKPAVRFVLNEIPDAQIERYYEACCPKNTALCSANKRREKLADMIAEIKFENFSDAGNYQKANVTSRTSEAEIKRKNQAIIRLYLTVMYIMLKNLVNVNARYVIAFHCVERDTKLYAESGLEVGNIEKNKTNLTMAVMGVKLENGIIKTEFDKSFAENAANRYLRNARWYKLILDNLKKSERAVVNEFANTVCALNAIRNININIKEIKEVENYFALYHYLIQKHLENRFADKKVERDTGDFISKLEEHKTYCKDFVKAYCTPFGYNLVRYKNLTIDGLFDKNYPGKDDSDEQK

B1: target 1 insG 3' of 19,insA 3' of 2 (mixed)
RNA 1: CACCCGUGCAAAAAUGCAGGGGUCUAAAACUGAGCGGAUAACCUCUCUAUGG
RNA 2: GGGAAUGGAUCCACAUCUACGAAUUCGUACCAUGAGAGAGGUUAUCCGCUCAACCGAGAUCGGAAGAGCACACGU
B2: target 1 insA 3' of 11,insA 3' of 4 (mixed)
RNA 1: B1 RNA 1
RNA 2: GGGAAUGGAUCCACAUCUACGAAUUCGUACCAUAGAGAGGUAUAUCCGCAUCACCGAGAUCGGAAGAGCACACGU
B3: target 1 C2A,A18U (mixed)
RNA 1: B1 RNA 1
RNA 2: GGGAAUGGAUCCACAUCUACGAAUUCGUACCAUUGAGAGGUUAUCCGCUAACCGAGAUCGGAAGAGCACACGU
B4: target 1 insA 3' of 11,insC 3' of 3 (mixed)
RNA 1: B1 RNA 1
RNA 2: B2 RNA 2 with A50U, U51C
B5: target 1 U10G (mixed)
RNA 1: B1 RNA 1
RNA 2: B3 RNA 2 with U34A, U42G, A50C
B6: target 1 del18 (mixed)
RNA 1: B1 RNA 1
RNA 2: GGGAAUGGAUCCACAUCUACGAAUUCGUACCAUGAGAGGUUAUCCGCUCACCGAGAUCGGAAGAGCACACGU
B7: target 1 insC 3' of 12,insU 3' of 7 (mixed)
RNA 1: B1 RNA 1
RNA 2: B2 RNA 2 with U41C, A42U, C47U, G48C, C49G, A50C
B8: target 1 insC 3' of 20,insA 3' of 12 (mixed)
RNA 1: B1 RNA 1
RNA 2: GGGAAUGGAUCCACAUCUACGAAUUCGUACCACUAGAGAGGAUUAUCCGCUCACCGAGAUCGGAAGAGCACACGU
B9: target 1 insA 3' of 13,insA 3' of 3 (mixed)
RNA 1: B1 RNA 1
RNA 2: B2 RNA 2 with G40A, U41G, A42U, A50U, U51A
B10: target 1 insA 3' of 17,insG 3' of 2 (mixed)
RNA 1: B1 RNA 1
RNA 2: B1 RNA 2 with G34A, A35G, G36A, A52G
B11: target 1 insA 3' of 7,insU 3' of 7 (mixed)
RNA 1: B1 RNA 1
RNA 2: B2 RNA 2 with A42U, U43A, A44U, U45C, C46A, C47U, G48C, C49G, A50C
B12: target 1 C4G,G5U (mixed)
RNA 1: B1 RNA 1
RNA 2: B3 RNA 2 with U34A, G47U, C48G, A50C
B13: target 1 U11C,A14G (mixed)
RNA 1: B1 RNA 1
RNA 2: B3 RNA 2 with U34A, A38G, U41C, A50C
B14: target 1 insU 3' of 17,insC 3' of 8 (mixed)
RNA 1: B1 RNA 1
RNA 2: B8 RNA 2 with C33U, U34A, A35G, G36U, A42U, U44A, A45U, U46C
B15: target 1 U3A,G17U (mixed)
RNA 1: B1 RNA 1
RNA 2: B3 RNA 2 with U34A, G35U, U49A, A50C
B16: target 1 C4U,A14G (mixed)
RNA 1: B1 RNA 1
RNA 2: B3 RNA 2 with U34A, A38G, C48U, A50C
B17: target 1 A1U,U10G (mixed)
RNA 1: B1 RNA 1
RNA 2: B3 RNA 2 with U34A, U42G, A50C, A51U
B18: target 1 U10A,G15U (mixed)
RNA 1: B1 RNA 1
RNA 2: B3 RNA 2 with U34A, G37U, U42A, A50C
B19: target 1 insU 3' of 12,insU 3' of 4 (mixed)
RNA 1: B1 RNA 1
RNA 2: B2 RNA 2 with A42U, A50U
B20: target 1 U3C,C6G (mixed)
RNA 1: B1 RNA 1
RNA 2: B3 RNA 2 with U34A, C46G, U49C, A50C
B21: target 1 insA 3' of 22,insU 3' of 15 (mixed)
RNA 1: B1 RNA 1
RNA 2: B8 RNA 2 with C31A, A32C, C33A, A39U, G40A, A42G
B22: target 1 insU 3' of 15,insU 3' of 5 (mixed)
RNA 1: B1 RNA 1
RNA 2: B2 RNA 2 with A38U, G39A, U41G, A42U, C49U, A50C
B23: target 1 G12U,A14C (mixed)
RNA 1: B1 RNA 1
RNA 2: B3 RNA 2 with U34A, A38C, G40U, A50C
B24: target 1 insG 3' of 11,insG 3' of 8 (mixed)
RNA 1: B1 RNA 1
RNA 2: B2 RNA 2 with A42G, C46G, G48C, C49G, A50C
B25: target 1 A1U,U19G (mixed)
RNA 1: B1 RNA 1
RNA 2: B3 RNA 2 with U33G, U34A, A50C, A51U
B26: target 1 A1G,U10G (mixed)
RNA 1: B1 RNA 1
RNA 2: B3 RNA 2 with U34A, U42G, A50C, A51G
B27: target 1 insG 3' of 7,insG 3' of 6 (mixed)
RNA 1: B1 RNA 1
RNA 2: B2 RNA 2 with A42U, U43A, A44U, U45C, C46G, C49G, A50C
B28: target 1 A9U,A14G (mixed)
RNA 1: B1 RNA 1
RNA 2: B3 RNA 2 with U34A, A38G, A43U, A50C
B29: target 1 insG 3' of 19,insC 3' of 1 (mixed)
RNA 1: B1 RNA 1
RNA 2: B1 RNA 2 with A53C
B30: target 1 A1C,U10G (mixed)
RNA 1: B1 RNA 1
RNA 2: B3 RNA 2 with U34A, U42G, A50C, A51C
B31: target 1 insG 3' of 19,insU 3' of 1 (mixed)
RNA 1: B1 RNA 1
RNA 2: B1 RNA 2 with A53U
B32: target 1 A14G,A16G (mixed)
RNA 1: B1 RNA 1
RNA 2: B3 RNA 2 with U34A, A36G, A38G, A50C
B33: target 1 G12A,G17U (mixed)
RNA 1: B1 RNA 1
RNA 2: B3 RNA 2 with U34A, G35U, G40A, A50C

These binders were tested against T1, EsCas13d, nuclease-dead (assay: crRNA (strand 1, pre-loaded); Mg2+; 40 mM Tris-HCl pH 7.5, 150 mM NaCl, 6 mM MgCl2, 1 mM DTT, 0.1% Tween-20, 0.2 mg/ml BSA; 25 C; 10 min per concentration, then washed). Settings: tags: His6-TwinStrep-SUMO cleaved; N-terminal SNAP kept (SNAP-Surface 488); label: 3' end held by stalled T7 RNA polymerase.

In order of rising Kd:
1. B9  3.99 ± 0.33 nM
2. B19  5.68 ± 0.27 nM
3. B11  6.31 ± 0.23 nM
4. B27  8.54 ± 0.3 nM
5. B8  9 ± 0.5 nM
6. B2  9.6 ± 0.6 nM
7. B20  12.1 ± 0.7 nM
8. B13  13.4 ± 0.6 nM
9. B4  13.8 ± 0.6 nM
10. B10  17.3 ± 2.5 nM
11. B28  17.7 ± 1.2 nM
12. B33  18.9 ± 1.4 nM
13. B21  19 ± 1.8 nM
14. B5  19.9 ± 1.1 nM
15. B26  21.1 ± 1.1 nM
16. B3  24.2 ± 1.2 nM
17. B15  25 ± 4 nM
18. B30  26 ± 5 nM
19. B17  26.4 ± 2.4 nM
20. B7  26.9 ± 1.9 nM
21. B24  33.3 ± 1.5 nM
22. B12  34.2 ± 2.7 nM
23. B32  34.8 ± 2.2 nM
24. B22  35 ± 5 nM
25. B6  42 ± 8 nM
26. B23  42 ± 6 nM
27. B14  44 ± 8 nM
28. B18  56 ± 13 nM
29. B29  59 ± 7 nM
30. B16  ~60 nM
31. B25  63 ± 12 nM
32. B31  63 ± 16 nM
33. B1  85 ± 26 nM
